Assay results from patent publication US20240309340.
Where a chain is given by its changes, count along the chain named. Read-outs that look alike come from different tables or passages of the source.

Legend:
[1] = target: T1, tsH042' Phi29 DNA polymerase (K143S, sso7d fusion) (Bacillus phage phi29?) (UniProt P03680); conditions: template aligned length, single molecule sequencing
T1 sequence: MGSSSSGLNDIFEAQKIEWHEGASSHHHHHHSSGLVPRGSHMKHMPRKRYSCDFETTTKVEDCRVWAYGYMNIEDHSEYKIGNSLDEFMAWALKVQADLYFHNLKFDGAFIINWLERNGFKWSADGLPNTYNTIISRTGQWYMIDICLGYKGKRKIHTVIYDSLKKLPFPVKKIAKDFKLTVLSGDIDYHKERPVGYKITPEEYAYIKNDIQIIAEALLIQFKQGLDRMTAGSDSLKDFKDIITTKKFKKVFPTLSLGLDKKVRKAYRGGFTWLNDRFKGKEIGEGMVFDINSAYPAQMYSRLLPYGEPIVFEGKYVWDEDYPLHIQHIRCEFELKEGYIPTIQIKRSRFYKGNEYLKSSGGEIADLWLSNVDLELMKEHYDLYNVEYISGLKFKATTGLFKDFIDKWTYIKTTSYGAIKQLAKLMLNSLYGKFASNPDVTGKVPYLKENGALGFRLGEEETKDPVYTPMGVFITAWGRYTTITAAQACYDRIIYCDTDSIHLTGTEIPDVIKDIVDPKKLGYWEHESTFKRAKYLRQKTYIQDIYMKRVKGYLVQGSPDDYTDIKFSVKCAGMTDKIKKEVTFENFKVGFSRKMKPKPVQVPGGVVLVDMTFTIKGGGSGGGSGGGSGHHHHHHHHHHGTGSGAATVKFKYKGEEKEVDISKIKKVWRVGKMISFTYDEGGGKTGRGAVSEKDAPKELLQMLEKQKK

[2] = target: T2, tsH039' Phi29 DNA polymerase (Y148L, sso7d fusion) (Bacillus phage phi29?) (UniProt P03680); conditions: template aligned length, single molecule sequencing
T2 sequence: T1 sequence with S184K, Y189L

[3] = target: T3, tsH034' Phi29 DNA polymerase (K143D, sso7d fusion) (Bacillus phage phi29?) (UniProt P03680); conditions: template aligned length, single molecule sequencing
T3 sequence: T1 sequence with S184D

[4] = system: H019 Phi29 DNA polymerase Y224K,E239G,V250I,L253A,E375A,A437G,A484E,E508R,D510K,K512Y,E515Q,D570M (Bacillus phage phi29?); assay: cleavage_in_vitro; conditions: RCA ++++
[5] = system: G059 Phi29 DNA polymerase E14I E14I (Bacillus phage phi29?); assay: cleavage_in_vitro; conditions: RCA +++
[6] = system: H020 Phi29 DNA polymerase Y224K,E239G,V250I,L253A,E375S,A437G,A484E,E508R,D510K,K512Y,E515Q,D570M (Bacillus phage phi29?); assay: cleavage_in_vitro; conditions: RCA ++++
[7] = system: G075 Phi29 DNA polymerase K143D K143D (Bacillus phage phi29?); assay: cleavage_in_vitro; conditions: RCA +++
[8] = system: H022 Phi29 DNA polymerase Y224K,E239G,V250I,L253A,E375Y,K379S,A437G,A484E,E508R,D510K,K512Y,E515Q,D570M (Bacillus phage phi29?); assay: cleavage_in_vitro; conditions: RCA ++++
[9] = system: H004 Phi29 DNA polymerase Y224K,E239G,V250I,L253A,E375Y,A437G,A484E,E508R,D510K,K512Y,E515Q,D570M (Bacillus phage phi29?); assay: cleavage_in_vitro; conditions: primer hydrolysed in 2 min
[10] = system: G087 Phi29 DNA polymerase Y148L Y148L (Bacillus phage phi29?); assay: cleavage_in_vitro; conditions: RCA +++
[11] = system: G077 Phi29 DNA polymerase D145A D145A (Bacillus phage phi29?); assay: cleavage_in_vitro; conditions: RCA +++
[12] = system: H019 Phi29 DNA polymerase Y224K,E239G,V250I,L253A,E375A,A437G,A484E,E508R,D510K,K512Y,E515Q,D570M (Bacillus phage phi29?); conditions: conversion of modified dNTPs; 5 mM Mg(OAc)2
[13] = system: H020 Phi29 DNA polymerase Y224K,E239G,V250I,L253A,E375S,A437G,A484E,E508R,D510K,K512Y,E515Q,D570M (Bacillus phage phi29?); conditions: conversion of modified dNTPs; 5 mM Mg(OAc)2
[14] = system: H034 Phi29 DNA polymerase K143D,Y224K,E239G,V250I,L253A,E375Y,A437G,A484E,E508R,D510K,K512Y,E515Q,D570M (Bacillus phage phi29?); conditions: conversion of modified dNTPs; 5 mM Mg(OAc)2
[15] = system: H022 Phi29 DNA polymerase Y224K,E239G,V250I,L253A,E375Y,K379S,A437G,A484E,E508R,D510K,K512Y,E515Q,D570M (Bacillus phage phi29?); conditions: conversion of modified dNTPs; 5 mM Mg(OAc)2
[16] = system: H004 Phi29 DNA polymerase Y224K,E239G,V250I,L253A,E375Y,A437G,A484E,E508R,D510K,K512Y,E515Q,D570M (Bacillus phage phi29?); conditions: conversion of modified dNTPs; 100 pM primer/template, 300 pM protein, 5 mM Mg(OAc)2, 10 mM DTT, 30 min; Table 5 gives 19.9%

## circular DNA template with primer (single molecule sequencing)
[1]
  activity: 342 bases
[2]
  activity: 436 bases
[3]
  activity: 282 bases

## fluorescent-labelled primer (exonuclease substrate)
[4]
  activity: 39.1%
[5]
  activity: 52.6%
[6]
  activity: 56.5%
[7]
  activity: 37.5%
[8]
  activity: 62.2%
[9]
  activity: 38%
[10]
  activity: 34.5%
[11]
  activity: 68.6%

## primer/template (modified dNTP conversion)
[12]
  activity: 22.2%
[13]
  activity: 46.2%
[14]
  activity: 5.4%
[15]
  activity: 32.5%
[16]
  activity: 48.4%
